Measurements from patent publication US20170035908A1 (published 2017).

Target: T1, PAM4 antigen (pancreatic cancer mucin, CaPan1 human pancreatic tumor)
T1 construct: also called CaPan1 Ag; CaPan1 antigens
Experiment: ELISA on target mucin antigen (FIG. 9)

EC50: 1.31 nM
B1: humanized PAM4 antibody (antibody, V domains shown)
VH: QVQLQQSGAEVKKPGASVKVSCEASGYTFPSYVLHWVKQAPGQGLEWIGYINPYNDGTQYNEKFKGKATLTRDTSINTAYMELSRLRSDDTAVYYCARGFGGSYGFAYWGQGTLVTVSS
VL: DIQLTQSPSSLSASVGDRVTMTCSASSSVSSSYLYWYQQKPGKAPKLWIYSTSNLASGVPARFSGSGSGTDFTLTISSLQPEDSASYFCHQWNRYPYTFGGGTRLEIKR
notes: also called hPAM4; hPAM4 IgG
